Results: IntAct's records for PubMed 9990021

B1: X-linked retinitis pigmentosa GTPase regulator (Homo sapiens), Q92834-2 (parent)
chain: MREPEELMPDSGAVFTFGKSKFAENNPGKFWFKNDVPVHLSCGDEHSAVVTGNNKLYMFGSNNWGQLGLGSKSAISKPTCVKALKPEKVKLAACGRNHTLVSTEGGNVYATGGNNEGQLGLGDTEERNTFHVISFFTSEHKIKQLSAGSNTSAALTEDGRLFMWGDNSEGQIGLKNVSNVCVPQQVTIGKPVSWISCGYYHSAFVTTDGELYVFGEPENGKLGLPNQLLGNHRTPQLVSEIPEKVIQVACGGEHTVVLTENAVYTFGLGQFGQLGLGTFLFETSEPKVIENIRDQTISYISCGENHTALITDIGLMYTFGDGRHGKLGLGLENFTNHFIPTLCSNFLRFIVKLVACGGCHMVVFAAPHRGVAKEIEFDEINDTCLSVATFLPYSSLTSGNVLQRTLSARMRRRERERSPDSFSMRRTLPPIEGTLGLSACFLPNSVFPRCSERNLQESVLSEQDLMQPEEPDYLLDEMTKEAEIDNSSTVESLGETTDILNMTHIMSLNSNEKSLKLSPVQKQKKQQTIGELTQDTALTENDDSDEYEEMSEMKEGKACKQHVSQGIFMTQPATTIEAFSDEEVEIPEEKEGAEDSKGNGIEEQEVEANEENVKVHGGRKEKTEILSDDLTDKAEDHEFSKTEELKLEDVDEEINAENVESKKKTVGDDESVPTGYHSKTEGAERTNDDSSAETIEKKEKANLEERAICEYNENPKGYMLDDADSSSLEILENSETTPSKDMKKTKKIFLFKRVPSINQKIVKNNNEPLPEIKSIGDQIILKSDNKDADQNHMSQNHQNIPPTNTERRSKSCTIL

Variants of: B1
Conditions: with pde6d_mouse Pde6d

Row | effect of a mutation on the interaction | Variant
1 | disrupting interaction | H98Q
2 | decreasing interaction | P235S
3 | disrupting interaction | G275S
4 | disrupting interaction | F130C
5 | disrupting interaction | C250R
6 | disrupting interaction | G215V
